Test results reported in US20100003195A1.
Bridge positions count the residues as written; N and C are the ends.

Tests used:
[1] = molecular target: KDR on KDR-transfected 293H cells (human), P35968; assay: competitor 125I-VEGF (300 pM), KDR-transfected 293H cells, peptide 30 µM; conditions: remark: other sources report otherwise
[2] = molecular target: KDR on KDR-transfected 293H cells (human), P35968; assay: competitor 125I-VEGF (300 pM), KDR-transfected 293H cells, peptide 0.3 µM; conditions: remark: other sources report otherwise

In the case of Ac-AGPKWCEEDWYYCMITGTGGGK-NH2 (disulfide 6-13 (inferred); also: fluorescein on C-terminal Lys in FP only) [SEQ ID NO:264], the % inhibition of 125I-labeled VEGF binding [1] is reported as 48% and the % inhibition of 125I-labeled VEGF binding [2] is reported as 24.4%.
